# B1: amivantamab (bispecific antibody, human IgG1, kappa)
# heavy 1: not shown
# light 1: not shown
# heavy 2: not shown
# light 2: DIQMTQSPSSVSASVGDRVTITCRASQGISNWLAWFQHKPGKAPKLLIYAASSLLSGVPSRFSGSGSGTDFTLTISSLQPEDFATYYCQQANSFPITFGQGTRLEIKRTVAAPSVFIFPPSDEQLKSGTASVVCLLNNFYPREAKVQWKVDNALQSGNSQESVTEQDSKDSTYSLSSTLTLSKADYEKHKVYACEVTHQGLSSPVTKSFNRGEC
# notes: The samples tested were high concentration (160 mg/mL) formulations, fresh or stored or stressed; also called JNJ-61186372; bispecific EGFR-cMet antibody
# Legend:
# [1] = molecular target: T1, recombinant human EGFR/ErbB1/HER1 with C-terminal His tag, Cy5-labeled (human, UniProt P00533 25-645, Cy5 label (reacted with Cy5 Mono NHS Ester; sites not stated)); assay: competitive TR-FRET (Eu-amivantamab/Cy5-EGFR), EC50 ratio vs Reference Material; Ex. 2 Formulation 1 (10 mM histidine), 1 month at 40 C
# T1 construct: Commercial protein; also called Cy5-EGFR; Cy5-labeled EGFR antigen; not shown: C-terminal His tag
# Text: (§1) In this procedure, varying concentrations of unlabeled bispecific EGFR-cMet antibody sample compete with donor fluorophore (Europium (Eu) chelate) labeled bispecific EGFR-cMet antibody for binding to an acceptor fluorophore (Cy5)-labeled EGFR antigen. Excitation of the donor fluorophore results in a transfer of energy to the bound acceptor fluorophore (FRET process). The resultant FRET is detected by emission of light at 665 nm using a microplate reader capable of measuring time-resolved fluorescence. Sample dose response curves are compared to the RM.
# (§2) EGFR Binding Materials and Methods. Certified commercial EGFR, a recombinant human EGFR/ErbB1/HER1 with C-terminal His tag is reacted with certified commercial Cy5 Mono NHS Ester to produce Cy5-labeled EGFR. Validated bispecific EGFR-cMet antibody is reacted with certified commercial Europium (Eu) chelate to produce Eu-labeled bispecific EGFR-cMet antibody. […] Fluorescence is then measured by spectrophotometry at 665 nm, plotted against antibody concentration and analyzed by a four-parameter logistic model. The antibody concentration required to obtain half of the maximum fluorescence response (EC50) is determined for RM, assay control and samples. The potencies of assay control and samples are calculated based on the ratio of the sample (or control) and RM EC50 values and reported as a percentage activity relative to the RM.
# [2] = molecular target: T1, recombinant human EGFR/ErbB1/HER1 with …; assay: competitive TR-FRET (Eu-amivantamab/Cy5-EGFR), EC50 ratio vs Reference Material; Ex. 11 drug product, 5 months at 5 C
# Text: as §1, §2
# [3] = molecular target: T1, recombinant human EGFR/ErbB1/HER1 with …; assay: competitive TR-FRET (Eu-amivantamab/Cy5-EGFR), EC50 ratio vs Reference Material; Ex. 12 drug product with rHuPH20, 0 months, 25 C table
# Text: as §1, §2
# [4] = molecular target: T1, recombinant human EGFR/ErbB1/HER1 with …; assay: competitive TR-FRET (Eu-amivantamab/Cy5-EGFR), EC50 ratio vs Reference Material; Ex. 11 drug product, 3 months at 5 C
# Text: as §1, §2
# [5] = molecular target: T1, recombinant human EGFR/ErbB1/HER1 with …; assay: competitive TR-FRET (Eu-amivantamab/Cy5-EGFR), EC50 ratio vs Reference Material; Ex. 2 Formulation 1 (10 mM histidine), T0, 40 C table
# Text: as §1, §2
# [6] = molecular target: T1, recombinant human EGFR/ErbB1/HER1 with …; assay: competitive TR-FRET (Eu-amivantamab/Cy5-EGFR), EC50 ratio vs Reference Material; Ex. 12 drug product with rHuPH20, 6 months at 5 C
# Text: as §1, §2
# [7] = molecular target: T2, recombinant cMet/HGFR with c-terminal His-tag, Cy5-labeled (UniProt P08581 25-932, limits assumed, Cy5 label (reacted with Cy5 Mono NHS Ester; sites not stated)); assay: competitive TR-FRET (Eu-amivantamab/Cy5-c-MET), EC50 ratio vs Reference Material; Ex. 2 Formulation 3 (acetate), 3 months at 5 C
# T2 construct: Commercial protein; also called Cy5-c-MET; Cy5-labeled c-MET antigen; not shown: C-terminal His-tag
# Text: In this procedure, varying concentrations of unlabeled bispecific EGFR-cMet antibody sample compete with donor fluorophore (Europium (Eu) chelate) labeled bispecific EGFR-cMet antibody for binding to an acceptor fluorophore (Cy5)-labeled c-MET antigen. Excitation of the donor fluorophore results in a transfer of energy to the bound acceptor fluorophore (FRET process). The resultant FRET is detected by emission of light at 665 nm using a microplate reader capable of measuring time-resolved fluorescence. Sample dose response curves are compared to the Reference Material (RM).
# as §2, with “c-MET Binding” for “EGFR Binding”, “commercial cMet,” for “commercial EGFR,”, “recombinant cMet/HGFR” for “recombinant human EGFR/ErbB1/HER1”, “with c-terminal His-tag” for “with C-terminal His tag”, “Cy5-labeled c-MET.” for “Cy5-labeled EGFR.”, “produce Eu labeled” for “produce Eu-labeled”
# [8] = molecular target: T1, recombinant human EGFR/ErbB1/HER1 with …; assay: competitive TR-FRET (Eu-amivantamab/Cy5-EGFR), EC50 ratio vs Reference Material; Ex. 11 drug product, 9 months at 5 C
# Text: as §1, §2
binder,measurement,setting,value
B1,EGFR Binding % activity relative to RM,[1],69%
same,EGFR Binding activity relative to Reference Material (%),[2],85%
same,EGFR Binding activity relative to Reference Material (%),[3],92%
same,EGFR Binding activity relative to Reference Material (%),[4],74%
same,EGFR Binding % activity relative to RM,[5],103%
same,EGFR Binding activity relative to Reference Material (%),[6],89%
same,cMET Binding % activity relative to RM,[7],109%
same,EGFR Binding activity relative to Reference Material (%),[8],90%
